Experimental data reported in patent publication US7423017B2, “Method for treating cartilage disorders” (Genentech, Inc., priority 1997, dated 2008).
“Also recorded” adds a separate entry of the source. Marks after values point to notes of the source that are not given here.

Assays:
IGFBP-1 [1] = assay: BIACORE kinetics: IGFBP-1 binding to immobilized IGF-1 variants; set-up: species or system human; settings: from relative KD values
Experimental: (§1) The binding affinities of the IGF variants for IGFBP-1 and IGFBP-3 were determined using a BIACORE™-2000 real time kinetic interaction analysis system (Biacore, Inc., Piscataway, N.J.) to measure association (ka) and dissociation (kd) rates. Carboxymethylated dextran biosensor chips (CM5, BIAcore Inc.) were activated with EDC (N-ethyl-N′-(3-dimethylaminopropyl)-carbodiimide hydrochloride) and NHS(N-hydroxysuccinimide) according to the supplier's instructions. For immobilization, IGF mutants in 20 mM sodium acetate, pH 4.8, were injected onto the biosensor chip at a concentration of 50 μg/ml to yield approximately 450-600 RU's (resonance-responce units) of covalently-coupled protein. Unreacted groups were blocked with an injection of 1 M ethanolamine. Kinetic measurements were carried out by injecting two-fold serial dilutions (starting at 1 μM) of either IGFBP-1 or IGFBP-3 in running buffer (PBS, 0.05% TWEEN 20™, 0.1% ovalbumin, 0.1% sodium azide) at 25 °C using a flow rate of 20 μl/min. Association rates (ka) and dissociation rates (kd) were calculated separately using a 1:1 Langmuir™ association model in the BIACORE™ evaluation software v. 3.0. The equilibrium dissociation constant (KD) was calculated as kd/ka.
(§2) For measurements of IGFBP-1 binding to IGF-1, kinetics experiments were conducted using a single-cysteine IGF-1 variant, Y31C, that was immobilized onto the sensor chip surface via a disulfide linkage (BIACORE™ System Manual Supplement, 5a-1, Pharmacia (1991)).

IGFBP-3 [2] = target: T1, IGFBP-3 (Homo sapiens, UniProt P17936); assay: BIACORE kinetics: IGFBP-3 binding to immobilized IGF-1 variants; settings: for Binding to IGFBP-3 ka: 25 C
T1 construct: made in house
Experimental: as §1

IGFBP-1 [3] = target: T2, IGFBP-1 (Homo sapiens, UniProt P08833); assay: BIACORE kinetics: IGFBP-1 binding to immobilized IGF-1 variants; set-up: made in house; host or cells: CHO cells; settings: for Binding to IGFBP-1 ka: 25 C
T2 sequence (P08833 26-259): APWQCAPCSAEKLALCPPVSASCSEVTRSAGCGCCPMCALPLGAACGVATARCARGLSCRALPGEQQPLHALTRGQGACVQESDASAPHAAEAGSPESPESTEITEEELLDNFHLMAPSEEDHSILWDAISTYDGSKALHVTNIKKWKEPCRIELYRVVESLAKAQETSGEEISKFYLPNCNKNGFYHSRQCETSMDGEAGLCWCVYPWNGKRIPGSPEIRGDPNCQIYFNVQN
Experimental: as §1, §2

[4] = blood clearance, pharmacokinetics and tissue distribution of radiolabeled IGF-1 variants, IV in rats; format: in vivo, rat
IGFBP-3 [5] = target: T1, IGFBP-3; assay: competitive phage ELISA of IGF-1 mutants, IGFBP-3; format: binding; settings: phage display, soluble IGFBP-3 competitor
Experimental: (§3) An alanine-scanning mutagenesis approach (Cunningham and Wells, Science, 244: 1081-1085 (1989); U.S. Pat. No. 5,834,250) was used to remove that portion of each side chain of IGF-1 beyond the beta carbon. The contribution of these atoms to the free energy of binding of the IGF-1 analog to IGFBP-1 or to IGFBP-3 was then assessed by competitive phage ELISA. In this assay, IGFBP-1 or IGFBP-3 is used to inhibit IGF-phage mutants from binding to an IGFBP-1- or IGFBP-3-coated immunosorbant plate.
(§4) Immunosorbent plates (Nunc, MAXISORP™, 96 wells) were coated with 100 μl/well of 1 μg/ml IGFBP-1 or IGFBP-3 in PBS buffer pH 7.2 at 4° C. overnight. The plates were then blocked with 0.5% TWEEN 20™/PBS (also used as binding buffer) for 2 hours at room temperature (proteinaceous blocking agents like bovine serum albumin were avoided to prevent potential IGF or IGFBP contamination). E. coli cells (XL1-Blue, Stratagene) freshly transformed with phagemid vector were grown overnight in 5 mL 2YT medium (Sambrook et al., supra) in the presence of M13-VCS helper phage (Stratagene). Phage particles were harvested and resuspended in PBS buffer as described in Lowman, H. B., “Phage Display of Peptide Libraries on Protein Scaffolds,” in Cabilly, S. (ed.), Combinatorial Peptide Library Protocols (Humana Press Inc.: Totowa, N.J., 1998), pp. 249-264. Then phage concentrations were normalized to yield a maximal ELISA signal of 0.2-0.4 for each mutant (Lowman, in Cabilly, S. (ed.), supra). Threefold serial dilutions of soluble competitor were prepared on non-absorbent microtiter plates (Nunc, F, 96 wells) with binding buffer (0.5% TWEEN 20™/PBS) containing phage at the previously determined concentrations. The dilution range of competitor protein extended over six orders of magnitude, starting at 5 μM for IGFBP-1 and 500 nM for IGFBP-3. After blocking, the plates containing immobilized target were washed with 0.05% TWEEN™/PBS buffer and subsequently incubated with 80 μl/well of the premixed phage-competitor solutions for 1 hour at room temperature. After washing, bound phage was detected with 80 μl/well of a solution containing a primary rabbit anti-phage polyclonal antibody and a secondary goat anti-rabbit monoclonal antibody-horseradish peroxidase conjugate in 0.5% TWEEN 20™/PBS. o-Phenylenediamine (Sigma) and tetramethylbenzidine (Kirkegaard and Perry) were used as chromogenic substrates, resulting in product detection at 492 and 450 nm, respectively. IC50 values were determined by fitting the binding data to a generic saturation curve (Lowman, in Cabilly, S. (ed.), supra). At least two individual clones of each IGF-1 mutant were assayed. Numbers in Table XIII represent mean±standard deviation of individually assessed IC50 values.

[6] = test system: human articular cartilage explants; assay: human articular cartilage explants from diseased joints: matrix synthesis (35S-sulfate uptake); format: cell-based; settings: 40 ng/ml
Experimental: The metacarpophalangeal joint of a six-month old pig was cultured as described above for bovine articular cartilage in Example 8. This explant was cultured in media alone or in media with D12K, D12R, or wild-type IGF-1 (at 10 nM) alone or in the presence of IL-1α at 1 ng/ml, as described above. Human explants were from patients undergoing joint replacement surgery. Articular cartilage was harvested, aliquoted (40-45 mg/tube) and cultured as above. […] Fresh media was added on days 0, 1, 2, and 3. Matrix breakdown was determined by measuring the amount of proteoglycans in the media using the DMMB assay as set forth above. Matrix (proteoglycan) synthesis was determined by measuring ^35S-sulfate uptake as set forth above.
Human articular cartilage explants were cultured in media or treated with IGF-1 by itself or in combination with either BP3-40 or BP3-15 at 0.1 mg/ml as set forth above. Matrix breakdown was determined by measuring the release of proteoglycans into media as described above. Matrix synthesis was determined by counting the amount of ^35S-sulfate incorporated into the cartilage tissue as described above.
The same Material and Methods (for human tissue) were used as described above, using articular cartilage explants from human joints removed from patients undergoing joint replacement. These explants were cultured with IGF-1 alone at 40 ng/ml, or IGF-1 with BP1-17, BP3-15, or BP1-16 (0.1 mg/ml), or IGF-1 with buffer (HEPES).

IGFBP-1 [7] = target: T2, IGFBP-1; assay: competitive phage ELISA of IGF-1 mutants, IGFBP-1; format: binding; set-up: made in house; host or cells: CHO cells; settings: phage display, soluble IGFBP-1 competitor
Experimental: as §3, §4

IGFBP-1 [8] = assay: competitive phage ELISA of IGF-1 mutants, IGFBP-1; format: binding, human; settings: relative IC50 IGFBP-1/relative IC50 IGFBP-3
Experimental: as §3, §4

T1 sequence (P17936 28-291): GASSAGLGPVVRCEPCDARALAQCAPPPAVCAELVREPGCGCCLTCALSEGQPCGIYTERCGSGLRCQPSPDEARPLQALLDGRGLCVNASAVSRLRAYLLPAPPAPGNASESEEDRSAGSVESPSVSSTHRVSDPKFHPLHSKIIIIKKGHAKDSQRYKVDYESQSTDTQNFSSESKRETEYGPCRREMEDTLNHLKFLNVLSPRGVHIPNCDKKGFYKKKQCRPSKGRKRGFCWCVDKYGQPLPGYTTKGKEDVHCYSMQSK

| Substance | Specificity Relative BP-1 / Relative BP-3 (IGFBP-1 [1]) | Binding to IGFBP-3 ka (IGFBP-3 [2]) | Binding to IGFBP-1 ka (IGFBP-1 [3]) | IC50 (IGFBP-3 [5]) | IC50 (IGFBP-1 [7]) | clearance ([4]; single IV dose in rats) | other results |
| --- | --- | --- | --- | --- | --- | --- | --- |
| ^125I-F49A: radiolabeled F49A IGF-1 | – | – | – | – | – | 427 ± 125*^+ ml/hr/kg | Half-life t1/2^α ([4]; single IV dose in rats): 3.84 ± 3.12 min; Half-life t1/2^β ([4]; single IV dose in rats): 0.971 ± 0.336^+ hr; Half-life t1/2^γ ([4]; single IV dose in rats): 8.97 ± 4.50 h; steady-state distribution volume ([4]; single IV dose in rats): 3201 ± 488*^+ ml/kg |
| F49A: IGF-1 variant wherein phenylalanine at position 49 is changed to alanine | 16.7 | 2.7 ± 0.7 ×10^5 M^−1s^−1 | 1.26 ± 0.8 ×10^4 M^−1s^−1 | 2.72 ± 1.11 nM | > 1000 nM | 427 ± 125 mL/h/kg | IGFBP-3 ka (IGFBP-3 [2]; Table XV): 2.7 ± 0.7 ×10^5 M^−1; IGFBP-3 kd (IGFBP-3 [2]; Table XV): 17.1 ± 0.9 ×10^−4 s^−1; rate of clearance from blood ([4]; radiolabeled, IV, rats): cleared at a faster rate compared to wild-type human IGF-1; kidney tissue-to-blood ratio ([4]; radiolabeled, IV, rats, 5, 15, 30 minutes): accumulate at statistically significant higher levels in the kidney compared to wild-type IGF-1; also recorded: accumulate at statistically significant higher ratios in the kidney compared to wild-type IGF-1; matrix synthesis in diseased human articular cartilage [6]: stimulated matrix synthesis in diseased human articular cartilage |
| T4A: IGF-1 single alanine mutant | 3.3 | 1.8 ± 0.6 ×10^5 M^−1s^−1 | 1.9 ± 0.2 ×10^4 M^−1s^−1 | 0.8 ± 0.02 nM | 19.4 ± 6.4 nM | – | relative specificity (IGFBP-1 [8]): 2.2 |

The next lines start with results.

| Specificity Relative BP-1 / Relative BP-3 (IGFBP-1 [1]) | Binding to IGFBP-3 ka (IGFBP-3 [2]) | Binding to IGFBP-1 ka (IGFBP-1 [3]) | IC50 (IGFBP-3 [5]) | IC50 (IGFBP-1 [7]) | Substance | clearance ([4]; single IV dose in rats) | other results |
| --- | --- | --- | --- | --- | --- | --- | --- |
| 1.1 | 3.1 ± 0.5 ×10^5 M^−1s^−1 | 1.9 ± 0.1 ×10^4 M^−1s^−1 | – | – | V11A: IGF-1 single alanine mutant | – | – |
| 1.4 | 4.0 ± 0.1 ×10^5 M^−1s^−1 | 4.0 ± 0.2 ×10^4 M^−1s^−1 | – | – | R36A: IGF-1 single alanine mutant | – | Binding to IGFBP-3 KD (IGFBP-3 [2]; kd/ka): wild-type kinetics; Binding to IGFBP-1 KD (IGFBP-1 [3]; kd/ka): wild-type kinetics |
